In patent US20210380675A1 (Kyowa Kirin, published 2021):
Changes are numbered by the printed parent chain.

T1: human IL-36α (R&D Systems cat#6995-IL-010/CF) (human, UniProt Q9UHA7 6-158)
T1 sequence (looked up): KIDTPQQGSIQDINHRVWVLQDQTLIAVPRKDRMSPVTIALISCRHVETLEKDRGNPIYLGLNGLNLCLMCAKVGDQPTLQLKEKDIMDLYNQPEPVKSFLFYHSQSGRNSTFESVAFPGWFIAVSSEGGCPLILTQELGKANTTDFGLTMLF

T2: human IL-36α(R12), truncated (human, UniProt Q9UHA7 6-158)
T2 construct: Untagged after removal of the His-SUMO tag; also called hIL-36alpha
T2 chain: T1 sequence (looked up) with Q7R

T3: cynomolgus IL-36α, truncated (cynomolgus macaque (Macaca fascicularis), UniProt Q9UHA7 14-158 (human entry), limits assumed)
T3 construct: Untagged after removal of the His-SUMO tag; also called cynomolgus IL-36 alpha; cyIL-36alpha
T3 chain: T1 sequence (looked up) with I2S, D3E, T4M, Q7P, G8V, T24I, M34V, A40S, V74A

T4: cynomolgus IL-36γ, truncated (cynomolgus macaque (Macaca fascicularis), UniProt Q9NZH8 18-167 (human entry), limits assumed)
T4 construct: Untagged after removal of the His-SUMO tag; also called cynomolgus IL-36 gamma; cyIL-36gamma
T4 chain: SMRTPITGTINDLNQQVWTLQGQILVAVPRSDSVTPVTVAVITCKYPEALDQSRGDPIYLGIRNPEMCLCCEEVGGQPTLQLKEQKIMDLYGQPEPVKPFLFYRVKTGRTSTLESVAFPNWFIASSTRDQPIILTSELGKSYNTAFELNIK

T5: IL-36 receptor (heterodimer of IL-36R and IL-1RAcP) on human cells (human, UniProt Q9HB29 20-575; Q9NPH3 21-570)
T5 sequence (looked up) 1: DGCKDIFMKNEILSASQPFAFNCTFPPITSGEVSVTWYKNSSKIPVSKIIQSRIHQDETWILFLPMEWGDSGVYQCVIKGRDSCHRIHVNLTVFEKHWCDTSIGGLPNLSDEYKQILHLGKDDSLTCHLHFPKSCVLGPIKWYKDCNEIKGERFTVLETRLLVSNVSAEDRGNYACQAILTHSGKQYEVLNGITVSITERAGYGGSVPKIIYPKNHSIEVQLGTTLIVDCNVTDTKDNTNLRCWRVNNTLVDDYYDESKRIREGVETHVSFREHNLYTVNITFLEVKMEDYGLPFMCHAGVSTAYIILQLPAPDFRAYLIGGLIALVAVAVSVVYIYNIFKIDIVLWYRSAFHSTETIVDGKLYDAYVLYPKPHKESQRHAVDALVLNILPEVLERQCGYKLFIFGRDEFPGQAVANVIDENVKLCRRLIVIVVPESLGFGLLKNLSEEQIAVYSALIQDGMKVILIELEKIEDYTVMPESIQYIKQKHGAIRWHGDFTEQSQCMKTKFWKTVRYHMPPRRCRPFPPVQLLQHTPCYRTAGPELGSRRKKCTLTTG
T5 sequence (looked up) 2: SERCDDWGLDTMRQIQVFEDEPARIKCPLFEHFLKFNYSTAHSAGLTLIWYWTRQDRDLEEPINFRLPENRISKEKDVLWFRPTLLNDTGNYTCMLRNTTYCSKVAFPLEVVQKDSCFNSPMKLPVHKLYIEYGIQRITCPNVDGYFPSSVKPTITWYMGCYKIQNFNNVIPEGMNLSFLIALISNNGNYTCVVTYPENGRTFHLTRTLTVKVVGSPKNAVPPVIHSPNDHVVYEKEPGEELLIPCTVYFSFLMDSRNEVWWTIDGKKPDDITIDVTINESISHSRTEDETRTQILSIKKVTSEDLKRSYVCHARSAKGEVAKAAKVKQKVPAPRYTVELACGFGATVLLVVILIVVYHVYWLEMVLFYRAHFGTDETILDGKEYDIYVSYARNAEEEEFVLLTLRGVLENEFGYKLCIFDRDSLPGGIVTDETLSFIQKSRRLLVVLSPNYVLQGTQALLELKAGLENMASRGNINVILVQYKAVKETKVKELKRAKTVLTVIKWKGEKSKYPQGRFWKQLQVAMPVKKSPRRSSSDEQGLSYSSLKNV

B1: 144D464A LV9are HV10b (antibody, V domains shown)
VH: QVQLVQSGAEVKKPGASVKVSCKASGFNIKDTYIHWVRQAPGQGLEWIGRIDPAIGTTRYDPKFQGRATITTDTSTSTVYLEFSSLRSEDTAVYYCARLHYFGNNFFFDYWGQGTLVTVSS
VL: QAVVTQEPSLTVSPGGTVTLTCRSSSGAVTTSNYANWVQEKPGQLFAGLIGGTNDRAPGVPARFSGSLLGGKAALTLSGAQPEDEADYFCALWFSNHWVFGGGTKLTVL
notes: Humanized
B2: 144D464A LV7a HV10b (antibody, V domains shown)
VH: B1 VH
VL: B1 VL with E40Q, L45A, L77I
notes: Humanized; also called humanized 144D464A antibody LV7a HV10b
B3: human IL-36γ, truncated (ligand)
chain: SMCKPITGTINDLNQQVWTLQGQNLVAVPRSDSVTPVTVAVITCKYPEALEQGRGDPIYLGIQNPEMCLYCEKVGEQPTLQLKEQKIMDLYGQPEPVKPFLFYRAKTGRTSTLESVAFPDWFIASSKRDQPIILTSELGKSYNTAFELNIND
B4: human IL-36Ra, truncated (ligand)
chain: VLSGALCFRMKDSALKVLYLHNNQLLAGGLHAGKVIKGEEISVVPNRWLDASLSPVILGVQGGSQCLSCGVGQEPTLTLEPVNIMELYLGAKESKSFTFYRRDMGLTSSFESAAYPGWFLCTVPEADQPVRLTQLPENGGWNAPITDFYFQQCD

Assays:
human IL-36γ, truncated [1] = target: B3; experiment: cell-based or functional assay
[2] = target: T1, human IL-36α (R&D Systems …); experiment: cell-based or functional assay
[3] = target: T2, human IL-36α(R12), truncated; experiment: SPR, Biacore, 1:1 Langmuir fit
Method: (§1) The humanized antibodies obtained in Example 6 were tested for their binding to recombinant human or cynomolgus macaque IL36a and IL-36γ in Biacore assays. The association time was set to 60 seconds, and the final dissociation time was set to 600 seconds. Equilibrium dissociation constant KD (kd/ka) of exemplary antibodies was determined using a 1:1 Langmuir fit model (see Tables 17-18 below).

human IL-36γ, truncated [4] = target: B3; experiment: SPR, Biacore, 1:1 Langmuir fit
Method: as §1

[5] = target: T3, cynomolgus IL-36α, truncated; experiment: SPR, Biacore, 1:1 Langmuir fit
Method: as §1

[6] = target: T4, cynomolgus IL-36γ, truncated; experiment: SPR, Biacore, 1:1 Langmuir fit
Method: as §1

[7] = target: T2, human IL-36α(R12), truncated; experiment: SPR, Biacore, 1:1 Langmuir fit; heads of c3 and c4 printed swapped
Method: as §1

human IL-36γ, truncated [8] = target: B3; experiment: as above
Method: as §1

[9] = target: T3, cynomolgus IL-36α, truncated; experiment: as above
Method: as §1

[10] = target: T4, cynomolgus IL-36γ, truncated; experiment: as above
Method: as §1

[11] = target: T5, IL-36 receptor (heterodimer of IL-36R …); experiment: cell-based or functional assay
[12] = target: T5, IL-36 receptor (heterodimer of IL-36R …); experiment: cell-based or functional assay; remark: listed apart in the source
[13] = target: T5, IL-36 receptor (heterodimer of IL-36R …); experiment: cell-based or functional assay; remark: listed apart in the source
[14] = target: T5, IL-36 receptor (heterodimer of IL-36R …); experiment: cell-based or functional assay; remark: listed apart in the source
[15] = target: T5, IL-36 receptor (heterodimer of IL-36R …); experiment: cell-based or functional assay; remark: listed apart in the source

IC50 of IL-8 secretion (AlphaLISA), HaCaT, 10 nM human IL-36γ (human IL-36γ, truncated [1]) | IC50 of IL-8 secretion (AlphaLISA), HaCaT, 10 nM human IL-36α [2] | Kd [3] | Kd (human IL-36γ, truncated [4]) | Kd [5] | Kd [6] | koff [7] | kon [7] | koff (human IL-36γ, truncated [8]) | kon (human IL-36γ, truncated [8]) | koff [9] | kon [9] | koff [10] | kon [10] | Binder | also measured
12.5 nM | 4.51 nM | 2.1 nM | 1.3 nM | 1.19 nM | 1.13 nM | 0.000445 s⁻¹ | 212000 M⁻¹ s⁻¹ | 0.000436 s⁻¹ | 336000 M⁻¹ s⁻¹ | 0.000422 s⁻¹ | 354000 M⁻¹ s⁻¹ | 0.000493 s⁻¹ | 434000 M⁻¹ s⁻¹ | B1 | 
7.83 nM | 3.9 nM | 2.09 nM | 1.31 nM | 1.25 nM | 1.18 nM | 0.000456 s⁻¹ | 219000 M⁻¹ s⁻¹ | 0.000451 s⁻¹ | 343000 M⁻¹ s⁻¹ | 0.000451 s⁻¹ | 362000 M⁻¹ s⁻¹ | 0.000523 s⁻¹ | 443000 M⁻¹ s⁻¹ | B2 | 
 |  |  |  |  |  |  |  |  |  |  |  |  |  | B3 | EC50 (read off the curve) [11]: ~1 nM
 |  |  |  |  |  |  |  |  |  |  |  |  |  | B4 | IC50 of IL-8 secretion, HaCaT, 10 nM cynomolgus IL-36α, FIG. 2A [12]: 21.8 nM; IC50 of IL-8 secretion, HaCaT, 10 nM cynomolgus IL-36α, FIG. 2B [12]: 20.8 nM; IC50 of IL-8 secretion, HaCaT, 10 nM human IL-36α, FIG. 1A [12]: 39.9 nM; IC50 of IL-8 secretion, HaCaT, 10 nM human IL-36α, FIG. 1B [12]: 46.6 nM; IC50 of IL-8 secretion, HaCaT, 10 nM human IL-36α, FIG. 1C [12]: 90.6 nM; IC50 of IL-8 secretion, HaCaT, 10 nM cynomolgus IL-36γ, FIG. 2C [13]: 174 nM; IC50 of IL-8 secretion, HaCaT, 10 nM cynomolgus IL-36γ, FIG. 2D [13]: 235 nM; IC50 of IL-8 secretion, HaCaT, 10 nM human IL-36γ, FIG. 1D [13]: 45.1 nM; IC50 of IL-8 secretion, HaCaT, 10 nM human IL-36γ, FIG. 1E [13]: 86.5 nM; IC50 of IL-8 secretion, HaCaT, 10 nM human IL-36γ, FIG. 1F [13]: 129 nM; IC50 of IL-8 secretion, primary human keratinocytes, 6.25 nM human IL-36α, FIG. 4A [14]: 11.2 nM; IC50 of IL-8 secretion, primary human keratinocytes, 8 nM human IL-36α, FIG. 4B [14]: 34.6 nM; IC50 of IL-8 secretion, primary human keratinocytes, 8.4 nM human IL-36γ, FIG. 4C [14]: 109 nM; IC50 of IL-8 secretion, primary human keratinocytes, 8.4 nM human IL-36γ, FIG. 4D [14]: 47.9 nM; IC50 of IL-8 secretion, primary human monocytes, 6 nM human IL-36γ, FIG. 5C [15]: 38 nM; IC50 of IL-8 secretion, primary human monocytes, 20 nM human IL-36α, FIG. 5A [15]: 46.5 nM; IC50 of IL-8 secretion, primary human monocytes, 40 nM human IL-36α, FIG. 5B [15]: 69.1 nM; IC50 of IL-8 secretion, primary human monocytes, 50 nM human IL-36γ, FIG. 5D [15]: 76.3 nM
